Data on two molecules can be found in PMC6699858, “Ternary structure of the outer membrane transporter FoxA with resolved signalling domain provides insights into TonB-mediated siderophore uptake” (eLife, 2019).

The target of one experiment is T1, FoxA (Pseudomonas aeruginosa, UniProt Q9I116).
T1 construct: Full-length FoxA, purified in nonyl glucopyranoside
Kind of experiment: tryptophan fluorescence quenching (Kd […]); also ITC in nanodiscs (Kd […]) and co-crystal structures without and with TonBCt. The format is binding.

Experiment [1] addresses T2, FoxA from Pseudomonas aeruginosa strain PAO1, full-length (Pseudomonas aeruginosa strain PAO1, UniProt Q9I116 1-820, Signal peptide taken as removed in the outer membrane; text gives the mature start as 44 or 45, and 45 is used. His6 tag removed by TEV, residual TEV-site residues at the C-terminus omitted. Ferrioxam). Kind of experiment: ITC; 150 μM TonBCt in the syringe, 15 μM apo FoxA in MSP1D1/POPC nanodiscs in the cell; 20 mM HEPES, 150 mM NaCl, pH 7.5; 26 °C; single-site model; triplicates, SD. Conditions: both partners purified. (Isothermal titration calorimetry measures the heat released or taken up as one component is titrated into another.)

Experiment [2] deals with T2, FoxA from Pseudomonas aeruginosa strain …. As to the kind of experiment: ITC; 150 μM TonBCt in the syringe, 15 μM ferrioxamine B-bound FoxA in MSP1D1/POPC nanodiscs in the cell (dialysed against 1 mM FoaB); 20 mM HEPES, 150 mM NaCl, pH 7.5; 26 °C; single-site model; triplicates, SD. As to conditions: both partners purified.

On to `CC(=O)N([O-])CCCCCNC(=O)CCC(=O)N([O-])CCCCCNC(=O)CCC(=O)N([O-])CCCCCN.[Fe+3]` [FoaB, ferrioxamine B], for which, at FoxA, the dissociation constant (Kd) (as a rule, the concentration at which binding is half-saturated) came to 100 ± 10 nM.

B1: TonBCt, C-terminal domain of TonB1 from Pseudomonas aeruginosa strain PAO1 (residues 251-340) (domain or fragment, UniProt Q51368 251-340, looked up)
chain: DSDIKPLRMDPPVYPRMAQARGIEGRVKVLFTITSDGRIDDIQVLESVPSRMFDREVRQAMAKWRFEPRVSGGKIVARQATKMFFFKIEK
notes: TonB1, Pseudomonas aeruginosa PAO1, residues 251-340 (C-terminal domain); also called TonB fragment; C-terminal TonB domain; source: E. coli BL21 Gold, purified (HisTrap Ni-NTA, TEV, reverse purification)
Take B1: in experiment [1], binding was put at a Kd of 111 nM and the dH was -10.1 kcal/mol. Moreover, in experiment [2], the Kd came out at 6.6 nM and the dH is -18.1 kcal/mol.
